Results taken from PMC2367452, “HOXA13 Is Essential for Placental Vascular Patterning and Labyrinth Endothelial Specification”.

Experiments:
[1] = target: T1, HOXA13 DNA-binding domain peptide (A13-DBD) (UniProt Q62424 320-386); assay: fluorescence anisotropy; abstract gives range 27-42 nM; FP: 1 nM fluorescein-labeled hairpin, 0-200 nM HOXA13-DBD, 15 C, buffer per ref 71 (not given); EMSA: Promega Gel Shift Binding System; settings: protein: recombinant, label: fluorescein, CCCCCCC-region loop
[2] = target: T1, HOXA13 DNA-binding domain peptide …; assay: fluorescence anisotropy; legend says affinity ablated; titrated only to 200 nM; FP: 1 nM fluorescein-labeled hairpin, 0-200 nM HOXA13-DBD, 15 C, buffer per ref 71 (not given); EMSA: Promega Gel Shift Binding System; settings: protein: recombinant, label: fluorescein, 14 bp stem, CCCCC loop

T1 sequence (Q62424 320-386): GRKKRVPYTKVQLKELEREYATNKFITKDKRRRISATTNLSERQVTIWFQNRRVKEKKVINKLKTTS

Row | Binder | Kd [1] | Kd [2]
1 | CTTATTATTAAAGGCCCCCCCTTTAATAATAAG (structured_DNA) [Foxf1 hairpin] | 48 ± 4 nM | –
2 | TGACTGACTGACTGCCCCCCAGTCAGTCAGTCA (structured_DNA) [TGAC control hairpin] | – | 250 ± 22 nM
